Assay [1] addresses T1, hsc70 (constitutively expressed form of hsp70) (UniProt P11142 1-646).
T1 construct: also called hs70 (printed for both hsp70 and hsc70); pure hsc70
Description: far-western, GST fusion probe on blotted 20 ng protein.

In assay [2] the target is T2, hsp70 (heat shock protein 70) (UniProt P0DMV8 1-641).
T2 construct: also called hs70 (printed for both hsp70 and hsc70); pure hsp70
The description is as above.

T1 sequence (P11142 whole entry): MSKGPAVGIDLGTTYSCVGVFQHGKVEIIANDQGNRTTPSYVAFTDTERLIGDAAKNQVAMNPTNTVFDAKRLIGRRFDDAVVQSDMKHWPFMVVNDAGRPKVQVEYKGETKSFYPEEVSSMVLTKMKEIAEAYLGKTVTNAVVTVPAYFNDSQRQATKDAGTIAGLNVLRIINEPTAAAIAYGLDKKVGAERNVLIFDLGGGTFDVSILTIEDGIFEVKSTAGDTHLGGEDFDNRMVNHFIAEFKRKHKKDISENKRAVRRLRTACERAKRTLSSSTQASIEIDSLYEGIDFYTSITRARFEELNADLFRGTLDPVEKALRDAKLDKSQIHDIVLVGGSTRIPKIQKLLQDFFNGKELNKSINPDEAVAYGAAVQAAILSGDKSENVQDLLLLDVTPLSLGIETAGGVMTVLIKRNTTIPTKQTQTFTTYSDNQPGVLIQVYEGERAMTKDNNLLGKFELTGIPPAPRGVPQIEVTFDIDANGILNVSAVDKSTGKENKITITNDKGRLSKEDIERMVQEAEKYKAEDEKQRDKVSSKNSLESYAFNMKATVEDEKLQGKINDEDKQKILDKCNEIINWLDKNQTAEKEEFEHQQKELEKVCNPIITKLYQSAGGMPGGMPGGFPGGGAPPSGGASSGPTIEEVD
T2 sequence (P0DMV8 whole entry): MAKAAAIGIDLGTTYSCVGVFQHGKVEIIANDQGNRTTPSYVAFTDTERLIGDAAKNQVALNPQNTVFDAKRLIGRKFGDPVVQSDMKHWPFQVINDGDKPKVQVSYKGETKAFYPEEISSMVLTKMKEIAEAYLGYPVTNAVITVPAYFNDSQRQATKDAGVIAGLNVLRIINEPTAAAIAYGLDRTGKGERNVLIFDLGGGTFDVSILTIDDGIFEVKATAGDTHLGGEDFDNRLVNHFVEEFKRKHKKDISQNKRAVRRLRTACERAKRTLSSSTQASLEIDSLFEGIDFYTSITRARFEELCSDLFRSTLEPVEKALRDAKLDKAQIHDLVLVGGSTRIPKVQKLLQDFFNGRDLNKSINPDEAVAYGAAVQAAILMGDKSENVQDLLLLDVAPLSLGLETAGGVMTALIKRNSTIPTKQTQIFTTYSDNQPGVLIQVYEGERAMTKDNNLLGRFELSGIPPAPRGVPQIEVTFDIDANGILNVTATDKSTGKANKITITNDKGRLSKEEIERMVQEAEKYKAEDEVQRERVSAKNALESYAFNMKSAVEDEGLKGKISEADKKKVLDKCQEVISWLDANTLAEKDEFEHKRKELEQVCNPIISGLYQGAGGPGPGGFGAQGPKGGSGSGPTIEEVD

B1: GST-UBP C1/2 (a.a. 145-313) (other, UniProt O43765 145-313, looked up)
chain: VQDCERAICIDPAYSKAYGRMGLALSSLNKHVEAVAYYKKALELDPDNETYKSNLKIAELKLREAPSPTGGVGSFDIAGLLNNPGFMSMASNLMNNPQIQQLMSGMISGGNNPLGTPGTSPSQNDLASLIQAGQQFAQQMQQQNPELIEQLRSQIRSRTPSASNDDQQE
notes: also called C/2; not shown: glutathione S-transferase (GST) fusion partner
In the case of B1, the binding result in assay [1] and in assay [2] was “no binding” in each case.

B2: GST-UBP N1/2 (a.a. 1-145) (other, UniProt O43765 1-145, looked up)
chain: MDNKKRLAYAIIQFLHDQLRHGGLSSDAQESLEVAIQCLETAFGVTVEDSDLALPQTLPEIFEAAATGKEMPQDLRSPARTPPSEEDSAEAERLKTEGNEQMKVENFEAAVHFYGKAIELNPANAVYFCNRAAAYSKLGNYAGAV
notes: not shown: glutathione S-transferase (GST) fusion partner
Turning to B2, the binding result in assay [1] and in assay [2] was “no binding” each time.

The values are drawn from patent US20050233963A1 (SCIENCE AND TECHNOLOGY CORPORATION UNM, published 2005).
